This passage reports protein stability index results from the supplement of paper PMC10567573.

B1: INTS3 (parent)
chain: KKREFRFHPIKETVVEEPVDITPY
B2: FANCE (parent)
chain: AQVLMLGQILELPWKEETFLVLQS
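Note: lentivirally expressed fusions sorted by FACS into six bins by GFP to DsRed ratio, PSI derived from sequencing read proportions per bin multiplied by bin number.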

The variants in one series derive from B1. The series can be described thus: protein stability index of a GFP-peptide fusion (GPS, HEK-293T) (PSI 1-6); higher = more stable. Particulars: c terminus: a fixed tail appended.
KKREFRFHPIKETVVEEPVDITTY [P23T]: the protein stability index came out at 1.46. As for KKREFRFHPIKETVVEEPVDITSY [P23S], the protein stability index amounted to 1.61.

Regarding KKREFRFHPIKETVVEEPVDITWY [P23W], the protein stability index was 2.28. The same measure, in the same setting: the figure for KKREFRFHPIKETVVEEPVDITMY [P23M] is 2.4; for KKREFRFHPIKETVVEEPVDITRY [P23R] it is 1.55; for KKREFRFHPIKETVVEEPVDITQY [P23Q] it is 1.88. With KKREFRFHPIKETVVEEPVDITVY [P23V], the protein stability index is 1.44. The same measure, in the same setting: the figure for KKREFRFHPIKETVVEEPVDITNY [P23N] is 1.84; for KKREFRFHPIKETVVEEPVDITYY [P23Y] it is 2.87; for KKREFRFHPIKETVVEEPVDITPW [Y24W] it is 1.88. The same measure, in the same setting: the result for KKREFRFHPIKETVVEEPVDITPV [Y24V] reads 2.26; that for KKREFRFHPIKETVVEEPVDITPK [Y24K], 1.71; that for KKREFRFHPIKETVVEEPVDITPI [Y24I], 2.33. On the same count and under the same terms, the figure for KKREFRFHPIKETVVEEPVDITPT [Y24T] is 2.24; for KKREFRFHPIKETVVEEPVDITPR [Y24R] it is 1.47; for KKREFRFHPIKETVVEEPVDITPD [Y24D] it is 2.44. Consider KKREFRFHPIKETVVEEPVDITPC [Y24C], for which the protein stability index is 2.16.

Consider KKREFRFHPIKETVVEEPVDITPE [Y24E], for which the protein stability index was 2.38.

Turning to KKREFRFHPIKETVVEEPVDITPL [Y24L], the protein stability index was 2.17. On the same count and under the same terms, the figure for KKREFRFHPIKETVVEEPVDITPQ [Y24Q] is 2.04. The same measure, in the same setting: the figure for KKREFRFHPIKETVVEEPVDITPG [Y24G] is 2.44. On the same count and under the same terms, the figure for KKREFRFHPIKETVVEEPVDITPA [Y24A] is 2.59; for KKREFRFHPIKETVVEEPVDITPP [Y24P] it is 2.17; for KKREFRFHPIKETVVEEPVDITPN [Y24N] it is 2.03. In the case of KKREFRFHPIKETVVEEPVDITPM [Y24M], the protein stability index was found to be 1.76. Take KKREFRFHPIKETVVEEPVDITPS [Y24S]: the protein stability index was 1.84. The same measure, in the same setting: the result for KKREFRFHPIKETVVEEPVDITPF [Y24F] reads 2.18. On to KKREFRFHPIKETVVEEPVDITPH [Y24H], for which the protein stability index was determined as 1.99.

The variants in another series derive from B2. The series is described as above. Conditions: c terminus: a fixed tail appended.
Turning to AQVGMLGQILELPWKEETFLVLQS [L4G], the protein stability index was found to be 2.25. Consider AQVRMLGQILELPWKEETFLVLQS [L4R], for which the protein stability index was found to be 2.68.

AQVCMLGQILELPWKEETFLVLQS [L4C]: the protein stability index is 3.01.

As for AQVTMLGQILELPWKEETFLVLQS [L4T], the protein stability index came to 2.7.

As to AQVNMLGQILELPWKEETFLVLQS [L4N], the protein stability index was 2.04. With AQVYMLGQILELPWKEETFLVLQS [L4Y], the protein stability index turned out to be 2.82. Same read-out and setting: the figure for AQVAMLGQILELPWKEETFLVLQS [L4A] is 2.02; for AQVSMLGQILELPWKEETFLVLQS [L4S] it is 2. On the same count and under the same terms, the figure for AQVEMLGQILELPWKEETFLVLQS [L4E] is 3.28. Same read-out and setting: the figure for AQVPMLGQILELPWKEETFLVLQS [L4P] is 2.18; for AQVHMLGQILELPWKEETFLVLQS [L4H] it is 1.66. Turning to AQVQMLGQILELPWKEETFLVLQS [L4Q], the protein stability index was 2.4. Turning to AQVKMLGQILELPWKEETFLVLQS [L4K], the protein stability index was found to be 2.13.

Consider AQVMMLGQILELPWKEETFLVLQS [L4M], for which the protein stability index worked out at 3.29.

Take AQVWMLGQILELPWKEETFLVLQS [L4W]: the protein stability index is 2.28. Still for that read-out and setting: the result for AQVDMLGQILELPWKEETFLVLQS [L4D] reads 3.76. Take AQALMLGQILELPWKEETFLVLQS [V3A]: the protein stability index was 3.44. Still for that read-out and setting: the figure for AQYLMLGQILELPWKEETFLVLQS [V3Y] is 2.82.

Consider AQNLMLGQILELPWKEETFLVLQS [V3N], for which the protein stability index came out at 1.97. Take AQFLMLGQILELPWKEETFLVLQS [V3F]: the protein stability index was found to be 3.46. Same read-out and setting: the figure for AQGLMLGQILELPWKEETFLVLQS [V3G] is 1.85; for AQELMLGQILELPWKEETFLVLQS [V3E] it is 1.82. On the same count and under the same terms, the result for AQQLMLGQILELPWKEETFLVLQS [V3Q] reads 1.72; that for AQHLMLGQILELPWKEETFLVLQS [V3H], 2.45.

For AQKLMLGQILELPWKEETFLVLQS [V3K], the protein stability index worked out at 1.32. Still for that read-out and setting: the result for AQILMLGQILELPWKEETFLVLQS [V3I] reads 2.75. Same read-out and setting: the result for AQMLMLGQILELPWKEETFLVLQS [V3M] reads 2.09; that for AQRLMLGQILELPWKEETFLVLQS [V3R], 2.92; that for AQPLMLGQILELPWKEETFLVLQS [V3P], 1.56. Still for that read-out and setting: the result for AQTLMLGQILELPWKEETFLVLQS [V3T] reads 2.01. For the variant AQDLMLGQILELPWKEETFLVLQS [V3D], the protein stability index turned out to be 1.81. Still for that read-out and setting: the result for AQLLMLGQILELPWKEETFLVLQS [V3L] reads 3.37; that for AQSLMLGQILELPWKEETFLVLQS [V3S], 1.95; that for AQVLELGQILELPWKEETFLVLQS [M5E], 1.79. On the same count and under the same terms, the figure for AQVLCLGQILELPWKEETFLVLQS [M5C] is 1.57. For the variant AQVLDLGQILELPWKEETFLVLQS [M5D], the protein stability index worked out at 1.95.

Regarding AQVLGLGQILELPWKEETFLVLQS [M5G], the protein stability index came out at 1.05. Consider AQVLALGQILELPWKEETFLVLQS [M5A], for which the protein stability index stood at 2.24.

Turning to QQVLMLGQILELPWKEETFLVLQS [A1Q], the protein stability index turned out to be 2.4. The same measure, in the same setting: the result for KQVLMLGQILELPWKEETFLVLQS [A1K] reads 1.56; that for MQVLMLGQILELPWKEETFLVLQS [A1M], 3.16. On the same count and under the same terms, the result for CQVLMLGQILELPWKEETFLVLQS [A1C] reads 2.51. Still for that read-out and setting: the result for VQVLMLGQILELPWKEETFLVLQS [A1V] reads 3.34; that for LQVLMLGQILELPWKEETFLVLQS [A1L], 3.15; that for HQVLMLGQILELPWKEETFLVLQS [A1H], 1.25. Consider TQVLMLGQILELPWKEETFLVLQS [A1T], for which the protein stability index was found to be 4.61. Same read-out and setting: the result for WQVLMLGQILELPWKEETFLVLQS [A1W] reads 2.62; that for GQVLMLGQILELPWKEETFLVLQS [A1G], 2.51.

As for EQVLMLGQILELPWKEETFLVLQS [A1E], the protein stability index came out at 2.43. Still for that read-out and setting: the result for NQVLMLGQILELPWKEETFLVLQS [A1N] reads 2.31; that for IQVLMLGQILELPWKEETFLVLQS [A1I], 3.1. The same measure, in the same setting: the figure for RQVLMLGQILELPWKEETFLVLQS [A1R] is 1.83. Same read-out and setting: the figure for DQVLMLGQILELPWKEETFLVLQS [A1D] is 1.77; for ANVLMLGQILELPWKEETFLVLQS [Q2N] it is 3.14; for AFVLMLGQILELPWKEETFLVLQS [Q2F] it is 1.72. For AGVLMLGQILELPWKEETFLVLQS [Q2G], the protein stability index turned out to be 2.21. On the same count and under the same terms, the figure for ADVLMLGQILELPWKEETFLVLQS [Q2D] is 2; for ASVLMLGQILELPWKEETFLVLQS [Q2S] it is 2.87; for AAVLMLGQILELPWKEETFLVLQS [Q2A] it is 2.05. Same read-out and setting: the result for AKVLMLGQILELPWKEETFLVLQS [Q2K] reads 2.02. Regarding ATVLMLGQILELPWKEETFLVLQS [Q2T], the protein stability index amounted to 3.45. As to APVLMLGQILELPWKEETFLVLQS [Q2P], the protein stability index was determined as 1.55. Still for that read-out and setting: the figure for AIVLMLGQILELPWKEETFLVLQS [Q2I] is 3.13; for AEVLMLGQILELPWKEETFLVLQS [Q2E] it is 2.48. Still for that read-out and setting: the result for AHVLMLGQILELPWKEETFLVLQS [Q2H] reads 2.69; that for AYVLMLGQILELPWKEETFLVLQS [Q2Y], 1.82.
